# According to US20210038528:
# How the values were obtained:
# [1] = system: T1, CGPLGLAGGERDGC (MMP9 substrate) peptide cross-linker as presented in MMP9-NANs
# T1 sequence: CGPLGLAGGERDGC
# [2] = system: T2, CGFLGC (cathepsin B substrate) peptide cross-linker as presented in CathB-NANs
# T2 sequence: CGFLGC
Substance,dye release from pep-NAN at pH 7 (fluorescence assay) [1],dye release from pep-NAN (fluorescence assay) [1],dye release from pep-NAN at pH 5 (fluorescence monitoring) [1],dye release from pep-NAN (fluorescence assay) [2],"time to comparable fluorescence change, relative to MMP9-NAN degradation by MMP9 [2]"
MMP1,The results of these experiments indicated that the MMP9-NAN is specific to the MMP9 enzyme,,,,
MMP2,The results of these experiments indicated that the MMP9-NAN is specific to the MMP9 enzyme,,,,
MMP9 enzyme (matrix metalloproteinase 9),,"MMP9-NANs and CathB-NANs released their dye when treated with their intended enzyme targets, MMP9 and cathepsin B, respectively",Exposure of MMP9-NANs to cathepsin B and MMP9 at pH 5 resulted in no observable change in fluorescence,,
cathepsin B,,"Cathepsin B activity on MMP9-NANs was also evaluated, in which no fluorescence change was observed",,"MMP9-NANs and CathB-NANs released their dye when treated with their intended enzyme targets, MMP9 and cathepsin B, respectively",it takes ˜20× as long to see comparable fluorescence changes in solution when cathepsin B is added to a solution of CathB-NANs as compared to MMP9-NAN degradation by MMP9
